The values below are quoted from earlier work in PMC2775921.

The target of data set [1] is IL-2 (Homo sapiens) (UniProt P60568).
Data set [2] shares this target. The source holds these as a separate data set.

Where two headings read alike, the source gives them in different places.

UniProt P60568, sequence (P60568 21-153): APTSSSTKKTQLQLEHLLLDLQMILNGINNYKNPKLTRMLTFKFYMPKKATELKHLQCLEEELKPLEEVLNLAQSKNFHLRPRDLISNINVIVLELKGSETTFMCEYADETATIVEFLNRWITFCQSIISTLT

As a reminder, the Kd is the concentration at which binding is half-saturated. For “CD25 (membrane α-chain) (from UniProt P01589)”, in the data set with IL-2 (Homo sapiens) [1], the Kd is 0.01 µM. soluble CD25 (from UniProt P01589): the Kd with IL-2 (Homo sapiens) [2] was 0.03 µM.
